Data taken from patent publication US20100047237A1.

Columns and labels:
[1] = target: ALys amyloid fibrils extracted from human amyloidotic tissue (human) (UniProt P61626); test: 125I-SAP binding to fibrils; ALys fibrils at 0.2 A280-A320 units/ml; mean of 2 replicates
[2] = target: ALys amyloid fibrils extracted from human amyloidotic tissue (human) (UniProt P61626); test: 125I-SAP binding to fibrils; ALys fibrils at 0.02 A280-A320 units/ml; mean of 2 replicates
[3] = target: ALys amyloid fibrils extracted from human amyloidotic tissue (human) (UniProt P61626); test: 125I-SAP binding to fibrils; ALys fibrils at 0.05 A280-A320 units/ml; mean of 2 replicates
[4] = target: ALys amyloid fibrils extracted from human amyloidotic tissue (human) (UniProt P61626); test: 125I-SAP binding to fibrils; ALys fibrils at 0.002 A280-A320 units/ml; mean of 2 replicates

% ^125I-SAP counts bound [1]: 79% | % ^125I-SAP counts bound [2]: 45% | % ^125I-SAP counts bound [3]: 72% | % ^125I-SAP counts bound [4]: 7%
Substance: human serum amyloid P component (SAP), 125I-labelled (from UniProt P02743 20-223)
